Columns and labels:
[1] = biological target: T1, Recombinant soluble RSV F stabilized in the pre-fusion conformation (soluble, processed, stabilized RSV F … (respiratory syncytial virus (RSV), UniProt P03420 26-513)); assay: sandwich ELISA: antibody coated, preF titrated, CR9506-HRP detection; preF alone
T1 construct: also called RSV pre-fusion F protein; RSV prefusion F

[2] = biological target: T1, Recombinant soluble RSV F stabilized in …; assay: sandwich ELISA: antibody coated, preF titrated, CR9506-HRP detection; preF + DMSO
[3] = biological target: T1, Recombinant soluble RSV F stabilized in …; assay: sandwich ELISA: antibody coated, preF titrated, CR9506-HRP detection; preF + compound III, trimer:compound 1:3
[4] = biological target: T1, Recombinant soluble RSV F stabilized in …; assay: sandwich ELISA: antibody coated, preF titrated, CR9506-HRP detection; preF + compound VII, trimer:compound 1:3
[5] = biological target: T1, Recombinant soluble RSV F stabilized in …; assay: sandwich ELISA: antibody coated, preF titrated, CR9506-HRP detection; preF + compound III, trimer:compound 1:10
[6] = biological target: T1, Recombinant soluble RSV F stabilized in …; assay: sandwich ELISA: antibody coated, preF titrated, CR9506-HRP detection; preF + compound III, trimer:compound 1:50
[7] = biological target: T1, Recombinant soluble RSV F stabilized in …; assay: sandwich ELISA: antibody coated, preF titrated, CR9506-HRP detection; preF + compound VII, trimer:compound 1:10
[8] = biological target: T1, Recombinant soluble RSV F stabilized in …; assay: sandwich ELISA: antibody coated, preF titrated, CR9506-HRP detection; preF + compound VII, trimer:compound 1:50

B1: CR9506 (antibody, human IgG1, kappa, V domains shown)
VH: EVQLVQSGAEVKKPGSSVKVSCKASGGTFSRSLITWVRQAPGQGLEWMGEISLVFGSAKNAQKFQGRVTITADESTSTAHMEMISLKHEDTAVYYCAAHQYGSGTHNNFWDESELRFDLWGQGTLVTVSS
VL: DIVMTQSPSSLSASVGDRVTIACRASQSIGTYLNWYQQKPGKAPKLLIYAASSLQSGVPSRFSGSGSGTHFTLAISSLQAEDFATYSCQQSYTIPYTFGQGTKLEIKR
notes: An HRP-labelled CR9506 was also the detection antibody in the ELISA; also called CR9506 (pan)
IC50 [1]: 0.28 nM
EC50 [2]: 0.29 nM
EC50 (half-maximal binding concentration) [3]: 0.3 nM
EC50 [4]: 0.32 nM
EC50 (half-maximal binding concentration) [5]: 0.29 nM
EC50 [6]: 0.31 nM
EC50 [7]: 0.29 nM
EC50 (half-maximal binding concentration) [8]: 0.31 nM
